The text below walks through data of paper PMC13322254.

Test [1] deals with SB2F1 (Pseudomonas putida | Bradyrhizobium japonicum) (UniProt Q88JB0). The test can be described thus: SEC; analytical SEC, in the dark only, Superdex 200 10/300 GL, 20 mM tris pH 8.0, 40 mM NaCl, 0.5 ml/min. (SEC sorts molecules by how far they enter the pores of the column.)
The target is the same in test [2]. The test is described as follows: SAXS + other: DLS; in solution with ATP and MgCl2, in the dark and after blue light illumination; SAXS at 10 °C in 20 mM Hepes pH 7.5, 150 mM NaCl, 2% glycerol, 2 mM TCEP, 1.5 mM ATP, 3 mM MgCl2, 0.64 to 4.18 mg/ml; DLS at 20 °C, ~1 mg/ml.
Test [3] concerns the target SB2F1, SeMet-labeled (Pseudomonas putida | Bradyrhizobium japonicum) (UniProt Q88JB0). The test can be described thus: crystal structure; dark-grown crystals, sitting-drop vapor diffusion, 19 °C, 10 to 12% PEG-8000, 0.2 M NaCl, 0.1 M sodium citrate pH 5.8 to 6.1, 1 mM ATP, 2 mM MgCl2; for SB2F1 also dark-grown crystals illuminated with blue light before data collection.

In test [4] the target is SB2F1-I66R, SeMet-labeled (Pseudomonas putida | Bradyrhizobium japonicum) (UniProt Q88JB0). The test can be described thus: crystal structure; crystals grown under continuous blue light (450 nm), 19 °C, 16 to 20% PEG-3350, 0.2 M LiSO4, 0.1 M bicine pH 9.0 to 9.3, 1 mM ATP, 2 mM MgCl2.
For test [5] the target is unchanged. The test is described as follows: crystal structure; dark-grown crystals, sitting-drop vapor diffusion, 19 °C, 10 to 12% PEG-8000, 0.2 M NaCl, 0.1 M sodium citrate pH 5.8 to 6.1, 1 mM ATP, 2 mM MgCl2; for SB2F1 also dark-grown crystals illuminated with blue light before data collection.

One may read the stoichiometry N as the number of molecules, sites or subunits per partner or assembly. On to “SB2F1 (from UniProt Q88JB0 1-120) (enzyme)”, for which the stoichiometry N in test [1] and in test [2] was 2 throughout.
As to “SB2F1, SeMet-labeled (from UniProt Q88JB0 1-120) (enzyme)”, the stoichiometry N in test [3] stood at 2.
“SB2F1-I66R, SeMet-labeled (from UniProt Q88JB0 1-120) (enzyme)”: the stoichiometry N in test [4] and in test [5] was 2 throughout.
